The results in this text go back to publication PMC7477763.

In test [1] the target is Middle East respiratory syndrome papain-like protease (MERS PLpro), recombinant (Middle East respiratory syndrome coronavirus).
The target of test [2] is human UCH-L3, recombinant (human) (UniProt P15374).
UniProt P15374, sequence (P15374 whole entry): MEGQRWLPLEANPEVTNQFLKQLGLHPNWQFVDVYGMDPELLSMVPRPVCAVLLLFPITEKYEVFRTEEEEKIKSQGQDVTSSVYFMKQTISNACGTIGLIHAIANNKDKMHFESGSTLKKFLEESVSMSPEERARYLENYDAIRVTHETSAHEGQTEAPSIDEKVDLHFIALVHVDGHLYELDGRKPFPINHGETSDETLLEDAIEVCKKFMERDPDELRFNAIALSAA

In the case of “Ub-ACC (ubiquitin with C-terminal ACC fluorophore) (from UniProt P0CG48 1-76)”, in test [1], the KM of hydrolysis of the ACC-labeled substrate (release of ACC) is 3.55 µM, the kcat of hydrolysis of the ACC-labeled substrate stood at 3.68 s^–1 and the kcat/KM of hydrolysis of the ACC-labeled substrate amounted to 1e+06 M^–1 s^–1. Moreover, in test [2], the KM of hydrolysis of the ACC-labeled substrate (release of ACC) was determined as 0.048 µM and the kcat of hydrolysis of the ACC-labeled substrate amounted to 0.107 s^–1.
